Laboratory results from patent publication US20240279325A1 (Chugai, published 2024).
One block for each binder: values may come before it.

Key:
[1] = target: T1, human FcγRIIa type H (allotype H131) extracellular domain with C-terminal His tag (human, UniProt P12318 34-217); test: SPR (Biacore), captured antibody, FcγR analyte
T1 construct: extracellular domain; also called FcγRIIaH; FrgRIIaH
T1 sequence (looked up): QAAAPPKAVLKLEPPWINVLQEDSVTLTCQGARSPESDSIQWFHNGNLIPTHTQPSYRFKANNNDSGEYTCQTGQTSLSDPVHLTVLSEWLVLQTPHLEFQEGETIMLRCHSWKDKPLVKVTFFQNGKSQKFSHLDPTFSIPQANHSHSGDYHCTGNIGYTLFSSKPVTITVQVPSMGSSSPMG

[2] = target: T2, human FcγRIIa type R (allotype R131) extracellular domain with C-terminal His tag (human, UniProt P12318 34-217); test: SPR (Biacore), captured antibody, FcγR analyte
T2 construct: extracellular domain; also called FcγRIIaR; FrgRIIaR
T2 sequence (looked up): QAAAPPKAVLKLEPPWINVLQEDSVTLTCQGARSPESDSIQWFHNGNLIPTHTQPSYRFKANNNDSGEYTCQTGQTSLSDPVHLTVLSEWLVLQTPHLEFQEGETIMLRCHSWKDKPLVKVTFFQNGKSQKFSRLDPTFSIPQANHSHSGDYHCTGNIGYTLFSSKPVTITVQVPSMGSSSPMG

[3] = target: T3, human FcγRIIIa type V (allotype V158) extracellular domain with C-terminal His tag (human, UniProt P08637 17-208); test: SPR (Biacore), captured antibody, FcγR analyte
T3 construct: extracellular domain; also called FcγRIIIaV; FrgRIIIaV
T3 sequence (P08637 17-208 F176V): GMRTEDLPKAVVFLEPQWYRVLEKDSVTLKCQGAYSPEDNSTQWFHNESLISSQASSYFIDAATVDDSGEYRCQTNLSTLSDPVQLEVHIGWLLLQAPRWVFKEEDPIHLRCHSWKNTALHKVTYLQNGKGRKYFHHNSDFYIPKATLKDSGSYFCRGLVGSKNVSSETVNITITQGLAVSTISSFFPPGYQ

[4] = target: T4, human FcγRIa extracellular domain with C-terminal His tag (human, UniProt P12314 16-292); test: SPR (Biacore), captured antibody, FcγR analyte
T4 construct: extracellular domain; also called FrgRIa

[5] = target: T5, human FcγRIIb extracellular domain with C-terminal His tag (human, UniProt P31994 43-217); test: ratio of SPR KDs, FcγRIIaR over FcγRIIb
T5 construct: extracellular domain; not shown: His tag at the C terminus
T5 sequence (looked up): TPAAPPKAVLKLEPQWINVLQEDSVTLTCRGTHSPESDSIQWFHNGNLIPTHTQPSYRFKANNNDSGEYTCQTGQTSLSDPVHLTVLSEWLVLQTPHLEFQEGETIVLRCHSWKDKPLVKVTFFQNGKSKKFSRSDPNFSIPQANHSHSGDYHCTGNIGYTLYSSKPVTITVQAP

[6] = target: T5, human FcγRIIb extracellular domain with …; test: ratio of SPR KDs, FcγRIIaH over FcγRIIb
[7] = target: T5, human FcγRIIb extracellular domain with …; test: SPR (Biacore); parent is IL6R-B3/IL6R-L
[8] = target: T6, human FcγRIIIa type V (allotype V158) extracellular domain with C-terminal His tag (human, UniProt P08637 17-208); test: SPR (Biacore), antibody captured, FcγR analyte
T6 construct: extracellular domain; also called FcγRIIIaV; FcγRIIIa V type; not shown: His tag at the C terminus
T6 sequence (P08637 17-208 F176V): as the sequence (P08637 17-208 F176V) above

[9] = target: T7, FcγRIIa type R (allotype R131) extracellular domain with C-terminal His tag (human, UniProt P12318 34-217); test: SPR; KD of IL6R-B3/IL6R-L divided by KD of the variant
T7 construct: extracellular domain; also called FcγRIIaR; FcγRIIa R type
T7 sequence (looked up): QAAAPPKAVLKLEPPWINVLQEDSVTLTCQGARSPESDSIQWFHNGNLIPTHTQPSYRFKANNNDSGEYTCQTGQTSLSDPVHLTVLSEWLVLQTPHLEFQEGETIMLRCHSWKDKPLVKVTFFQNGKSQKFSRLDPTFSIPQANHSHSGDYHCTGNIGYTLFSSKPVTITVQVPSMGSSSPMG

[10] = target: T8, FcγRIIb extracellular domain with C-terminal His tag (human, UniProt P31994 43-217); test: as above
T8 construct: extracellular domain
T8 sequence (looked up): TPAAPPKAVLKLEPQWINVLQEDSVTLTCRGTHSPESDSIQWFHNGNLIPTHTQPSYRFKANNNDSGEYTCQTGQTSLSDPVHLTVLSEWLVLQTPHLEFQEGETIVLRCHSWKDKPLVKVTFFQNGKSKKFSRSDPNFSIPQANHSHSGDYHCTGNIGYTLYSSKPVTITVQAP

[11] = target: T8, FcγRIIb extracellular domain with …; test: SPR; KD for FcγRIIaR divided by KD for FcγRIIb
[12] = target: T8, FcγRIIb extracellular domain with …; test: SPR (Biacore), antibody captured, FcγR as analyte
[13] = target: T9, FcγRIIa type H (allotype H131) extracellular domain with C-terminal His tag (human, UniProt P12318 34-217); test: SPR (Biacore), antibody captured, FcγR as analyte
T9 construct: extracellular domain; also called FcγRIIaH; FcγRIIa H type
T9 sequence (looked up): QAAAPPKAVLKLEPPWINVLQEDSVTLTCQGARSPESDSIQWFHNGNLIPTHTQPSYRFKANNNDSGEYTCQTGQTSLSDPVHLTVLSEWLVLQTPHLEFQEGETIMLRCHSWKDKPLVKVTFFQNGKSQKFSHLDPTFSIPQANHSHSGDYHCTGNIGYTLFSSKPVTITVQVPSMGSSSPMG

[14] = target: T8, FcγRIIb extracellular domain with …; test: SPR; KD for FcγRIIaH divided by KD for FcγRIIb
[15] = target: T10, mouse FcγRI (mouse, UniProt P26151 25-297); test: SPR (Biacore), method of Reference Example 2
T10 construct: extracellular domain; also called mFcγRI
T10 sequence (looked up): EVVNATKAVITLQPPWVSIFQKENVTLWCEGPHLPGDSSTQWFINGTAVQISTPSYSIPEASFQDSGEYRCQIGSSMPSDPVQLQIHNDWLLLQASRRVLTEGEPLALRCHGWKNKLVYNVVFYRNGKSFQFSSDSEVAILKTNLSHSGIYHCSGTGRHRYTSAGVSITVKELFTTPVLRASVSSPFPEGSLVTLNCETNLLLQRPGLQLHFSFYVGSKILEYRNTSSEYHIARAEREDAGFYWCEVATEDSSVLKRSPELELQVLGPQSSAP

[16] = target: T11, mouse FcγRIV (mouse, UniProt A0A0B4J1G0 21-203); test: SPR (Biacore), method of Reference Example 2
T11 construct: also called mFcγRIV; not shown: purification tag of the soluble receptor (probably a His tag)
T11 sequence: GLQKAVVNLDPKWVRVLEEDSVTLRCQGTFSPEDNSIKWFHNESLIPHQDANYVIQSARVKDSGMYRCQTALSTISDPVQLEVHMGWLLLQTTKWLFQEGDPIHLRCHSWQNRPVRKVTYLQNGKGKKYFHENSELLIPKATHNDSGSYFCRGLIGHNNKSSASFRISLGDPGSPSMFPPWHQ

T4 sequence (P12314 16-292): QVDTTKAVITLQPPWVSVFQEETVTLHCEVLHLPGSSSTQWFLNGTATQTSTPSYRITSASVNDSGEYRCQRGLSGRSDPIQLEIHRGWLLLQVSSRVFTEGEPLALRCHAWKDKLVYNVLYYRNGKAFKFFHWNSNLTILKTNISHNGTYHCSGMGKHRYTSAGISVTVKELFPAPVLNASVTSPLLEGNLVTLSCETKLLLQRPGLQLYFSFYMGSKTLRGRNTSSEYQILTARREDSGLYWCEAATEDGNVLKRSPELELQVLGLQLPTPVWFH

B2: IL6R-BP198/IL6R-L (antibody, human IgG1, kappa, name in EU numbering)
heavy: QVQLQESGPGLVKPSETLSLTCAVSGHSISHDHAWSWVRQPPGEGLEWIGFISYSGITNYNPSLQGRVTISRDNSKNTLYLQMNSLRAEDTAVYYCARSLARTTAMDYWGEGTLVTVSSASTKGPSVFPLAPSSKSTSGGTAALGCLVKDYFPEPVTVSWNSGALTSGVHTFPAVLQSSGLYSLSSVVTVPSSSLGTQTYICNVNHKPSNTKVDKKVEPKSCDKTHTCPPCPAPDYLGGDSVFLFPPKPKDTLMISRTPEVTCVVVDVSDEDGEVKFNWYVDGVEVHNAKTKPREEQYNSTYRVVSVLTVLHQDWLNGKEYKCKVSNAALPKPIEKTISKAKGQPREPQVYTLPPSRDELTKNQVSLTCLVKGFYPSDIAVEWESNGQPENNYKTTPPVLDSDGSFFLYSKLTVDKSRWQQGNVFSCSVMHEALHNHYTQESLSLSP
light: not shown
notes: EU numbering; copies: 2 + 2
KD(IIaR)/KD(IIb) [5]: 11
KD(IIaH)/KD(IIb) [6]: 102
KD(IIb) of the parent polypeptide/KD(IIb) of altered polypeptide [7]: 15.7 fold

B3: IL6R-BP217/IL6R-L (antibody, human IgG1, kappa, name in EU numbering)
heavy: QVQLQESGPGLVKPSETLSLTCAVSGHSISHDHAWSWVRQPPGEGLEWIGFISYSGITNYNPSLQGRVTISRDNSKNTLYLQMNSLRAEDTAVYYCARSLARTTAMDYWGEGTLVTVSSASTKGPSVFPLAPSSKSTSGGTAALGCLVKDYFPEPVTVSWNSGALTSGVHTFPAVLQSSGLYSLSSVVTVPSSSLGTQTYICNVNHKPSNTKVDKKVEPKSCDKTHTCPPCPAPELLGDDSVFLFPPKPKDTLMISRTPEVTCVVVDVQDEDGEVKFNWYVDGVEVHNAKTKPREEQDNSTYRVVSVLTVLHQDWLNGKEYKCKVSNKALPKPIEKTISKAKGQPREPQVYTLPPSRDELTKNQVSLTCLVKGFYPSDIAVEWESNGQPENNYKTTPPVLDSDGSFFLYSKLTVDKSRWQQGNVFSCSVMHEALHNHYTQESLSLSP
light: not shown
notes: EU numbering; copies: 2 + 2
Kd [8]: 60 µM

B5: IL6R-BP231/IL6R-L (antibody, human IgG1, kappa, name in EU numbering)
heavy: QVQLQESGPGLVKPSETLSLTCAVSGHSISHDHAWSWVRQPPGEGLEWIGFISYSGITNYNPSLQGRVTISRDNSKNTLYLQMNSLRAEDTAVYYCARSLARTTAMDYWGEGTLVTVSSASTKGPSVFPLAPSSKSTSGGTAALGCLVKDYFPEPVTVSWNSGALTSGVHTFPAVLQSSGLYSLSSVVTVPSSSLGTQTYICNVNHKPSNTKVDKKVEPKSCDKTHTCPPCPAPELLGDDSVFLFPPKPKDTLMISRTPEVTCVVVDVSDEDGEVKFNWYVDGVEVHNAKTKPREEQDNSTYRVVSVLTVLHQDWLNGKEYKCKVSNKALPRPIEKTISKAKGQPREPQVYTLPPSRDELTKNQVSLTCLVKGFYPSDIAVEWESNGQPENNYKTTPPVLDSDGSFFLYSKLTVDKSRWQQGNVFSCSVMHEALHNHYTQESLSLSP
light: not shown
notes: EU numbering; copies: 2 + 2
Kd [8]: 40 µM

The next lines start with the values.

relative binding activity [1]: 344 % of IL6R-BF648/IL6R-L binding
relative binding activity [2]: 661 % of IL6R-BF648/IL6R-L binding
relative binding activity [3]: 221 % of IL6R-BF648/IL6R-L binding
relative binding activity [4]: 68 % of IL6R-BF648/IL6R-L binding
B1: IL6R-BP195/IL6R-L (antibody, human IgG1, kappa, name in EU numbering)
heavy: QVQLQESGPGLVKPSETLSLTCAVSGHSISHDHAWSWVRQPPGEGLEWIGFISYSGITNYNPSLQGRVTISRDNSKNTLYLQMNSLRAEDTAVYYCARSLARTTAMDYWGEGTLVTVSSASTKGPSVFPLAPSSKSTSGGTAALGCLVKDYFPEPVTVSWNSGALTSGVHTFPAVLQSSGLYSLSSVVTVPSSSLGTQTYICNVNHKPSNTKVDKKVEPKSCDKTHTCPPCPAPDYLGDDSVFLFPPKPKDTLMISRTPEVTCVVVDVSDEDGEVKFNWYVDGVEVHNAKTKPREEQDNSTYRVVSVLTVLHQDWLNGKEYKCKVSNAALPKPIEKTISKAKGQPREPQVYTLPPSRDELTKNQVSLTCLVKGFYPSDIAVEWESNGQPENNYKTTPPVLDSDGSFFLYSKLTVDKSRWQQGNVFSCSVMHEALHNHYTQESLSLSP
light: not shown
notes: Alterations introduced into IL6R-B3, EU numbering; copies: 2 + 2

KD(IIaR) OF PARENT POLYPEPTIDE/KD(IIaR) OF ALTERED POLYPEPTIDE [9]: 4.3
KD(IIb) OF PARENT POLYPEPTIDE/KD(IIb) OF ALTERED POLYPEPTIDE [10]: 471
KD(IIaR)/KD(IIb) [11]: 38.6
Kd [12]: 0.0065 µM
Kd [13]: 54 µM
KD(IIaH)/KD(IIb) [14]: 821
B4: IL6R-BP494/IL6R-L (antibody, human IgG1, kappa, name in EU numbering)
heavy: QVQLQESGPGLVKPSETLSLTCAVSGHSISHDHAWSWVRQPPGEGLEWIGFISYSGITNYNPSLQGRVTISRDNSKNTLYLQMNSLRAEDTAVYYCARSLARTTAMDYWGEGTLVTVSSASTKGPSVFPLAPSSKSTSGGTAALGCLVKDYFPEPVTVSWNSGALTSGVHTFPAVLQSSGLYSLSSVVTVPSSSLGTQTYICNVNHKPSNTKVDKKVEPKSCDKTHTCPPCPAPELLGDDSVFLFPPKPKDTLMISRTPEVTCVVVDVAEEDGEVKFNWYVDGVEVHNAKTKPREEQDNSTYRVVSVLTVLHQDWLNGKEYKCKVSNKALPRPIEKTISKAKGQPREPQVYTLPPSRDELTKNQVSLTCLVKGFYPSDIAVEWESNGQPENNYKTTPPVLDSDGSFFLYSKLTVDKSRWQQGNVFSCSVMHEALHNHYTQESLSLSP
light: not shown
notes: copies: 2 + 2

binding result [15]: no binding
binding result [16]: no binding
B6: VH3/L(WT)-mIgG1-mF46 (antibody)
heavy: QVQLQESGPGLVKPSETLSLTCAVSGHSISHDHAWSWVRQPPGEGLEWIGFISYSGITNYNPSLQGRVTISRDNSKNTLYLQMNSLRAEDTAVYYCARSLARTTAMDYWGEGTLVTVSSAKTTPPSVYPLAPGSAAQTNSMVTLGCLVKGYFPEPVTVTWNSGSLSSGVHTFPAVLQSDLYTLSSSVTVPSSTWPSETVTCNVAHPASSTKVDKKIVPRDCGCKPCICTVPEVSDVFIFPPKPKDVLTITLTPKVTCVVVDISKDDPEVQFSWFVDDVEVHTAQTQPREEQFNSTFRSVSELPIMHQDWLNGKEFKCRVNSADFPAPIEKTISKTKGRPKAPQVYTIPPPKEQMAKDKVSLTCMITDFFPEDITVEWQWNGQPAENYKNTQPIMDTDGSYFVYSKLNVQKSNWEAGNTFTCSVLHEGLHNHHTEKSLSHSPGK
light: not shown
notes: copies: 2 + 2
